Source: doi:10.1101/2019.12.20.884148

Biological target: Galectin-3 (R&D Systems) (UniProt P17931)
Assay: SPR

Sequence of UniProt P17931 (P17931 whole entry): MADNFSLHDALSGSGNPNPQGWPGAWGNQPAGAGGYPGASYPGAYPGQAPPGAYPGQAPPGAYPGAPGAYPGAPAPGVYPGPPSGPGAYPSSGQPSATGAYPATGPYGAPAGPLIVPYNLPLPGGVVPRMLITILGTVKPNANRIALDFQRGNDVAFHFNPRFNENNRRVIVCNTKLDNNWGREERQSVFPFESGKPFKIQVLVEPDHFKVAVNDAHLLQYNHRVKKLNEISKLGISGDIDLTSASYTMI

How did the Kd turn out when “Bovine lubricin (bPRG4) (natural protein)” was run?
The Kd was 3.8 µM.
